From patent US20120213699A1 (BOARD OF TRUSTEES OF THE UNIVERSITY OF ILLINOIS, published 2012) come the findings set out here.

The target of this assay is T1, BSA (UniProt P02769 25-607).
T1 construct: Negative control coating; also called bovine serum albumin
Description: phage ELISA on coated plates, anti-M13 peroxidase. (In general: An ELISA detects its analyte on a solid surface through an enzyme-linked reagent.)
Description: Phage ELISA on ACE-coated plates. Purified phages after 1st round of selection were taken for analysis in ELISA. […] For that, 96 well plate was coated with human and rat ACEs as a positive controls, and bovine ACE and BSA (5 ug/ml) as a negative controls. Plates were blocked for 30 min with 2% non-fat dry milk, and phages diluted in the milk were applied to the plates. After 30 min incubation with shaking and another 1.5 hours without shaking, unbound phages were washed with PBS/0.05% Tween 20 and anti-M13 antibodies conjugated with peroxidase (Pharmacia Biotech) diluted 1/2000 dilution in the 2% non-fat dry milk were added. After intensive washing with PBS/0.05% Tween 20 plates were developed with 1-step 3,3′5,5′-Tetramethyl-benzidine (TBM) substrate for ELISA and read at OD620 or at OD450 after reaction was stopped with 3N HCl.
For the assay 96 well plates were coated with human and rat ACEs as positive controls and with bovine ACE and BSA (5 μg/ml) as negative controls. Plates were blocked for 30 min with 2% non-fat dry milk and the phages diluted in milk were applied to the plates. […] After Intensive washing with PBS/Tween 20 the plates were developed with 1-step TBM substrate for ELISA and read at 620 nm or 450 nm after the reaction was stopped with 3N HCl.

T1 sequence (P02769 25-607 limits assumed): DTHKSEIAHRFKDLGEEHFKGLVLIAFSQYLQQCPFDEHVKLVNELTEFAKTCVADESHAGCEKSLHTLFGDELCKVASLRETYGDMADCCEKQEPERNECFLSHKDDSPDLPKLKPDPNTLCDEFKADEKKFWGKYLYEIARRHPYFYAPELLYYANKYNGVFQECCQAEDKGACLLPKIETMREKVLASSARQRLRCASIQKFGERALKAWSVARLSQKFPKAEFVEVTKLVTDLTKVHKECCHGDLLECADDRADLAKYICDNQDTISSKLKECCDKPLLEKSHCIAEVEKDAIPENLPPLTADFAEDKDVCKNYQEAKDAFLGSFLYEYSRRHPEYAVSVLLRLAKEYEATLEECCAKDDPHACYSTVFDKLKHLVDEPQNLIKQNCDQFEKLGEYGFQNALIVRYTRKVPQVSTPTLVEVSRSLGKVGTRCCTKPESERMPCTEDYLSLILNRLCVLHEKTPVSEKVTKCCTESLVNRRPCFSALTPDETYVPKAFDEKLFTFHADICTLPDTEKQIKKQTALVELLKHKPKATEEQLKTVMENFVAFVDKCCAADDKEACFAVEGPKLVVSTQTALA

B1: scFv 9B9 expressed on the phage surface (phages with the λ fragment) (scFv)
scFv: QVQLKESGPGLVAPSQSLSITCTVSGFSLTTYGVHWVRQPPGKGLEWLGVIWGGGNTNYNSALMSRLNITKDNSKRQVFLKMNSLQADDTGMYYCARGWDSWGQGTTLTVSSAKTTPPKLEEGEFSEARVQAVVTQESALTTSPGETVTLTCRSSTGAVTTNNYANWVQENPDHLFTGLIDGTNTRSPGVPARFSGSLIGDKAALTITGAQTEDEAIYFCALWYSNHWVFGGGTKLTVLGQ
notes: also called scFv 9B9 phages; 9B9 scFv phages; not shown: phage coat protein fusion partner from phagemid pSEX 81
Regarding B1, the binding result is “no binding (tested: 5 µg/ml (coating))”.
